According to PMC3125165:

Molecular target: Escherichia coli FtsZ (Escherichia coli) (UniProt P0A9A6)

## Escherichia coli FtsZ (from UniProt P0A9A6 1-383) (natural protein)
  Pi released by GTP hydrolysis (MESG/PNP phosphate assay), endpoint as percent of the theoretical maximum, pH 6.0, 0.2 mM GTP, 11 uM FtsZ: 90%
  Pi released by GTP hydrolysis (MESG/PNP phosphate assay), endpoint as percent of the theoretical maximum, pH 6.5, 0.2 mM GTP, 11 uM FtsZ: 96%
  Pi released by GTP hydrolysis (MESG/PNP phosphate assay), endpoint as percent of the theoretical maximum, pH 7.0, 0.2 mM GTP, 11 uM FtsZ: 87%
